This experiment addresses T1, alcalase (trade name "Alcalase 2.5L", Novozymes) (UniProt P00780).
T1 sequence (looked up): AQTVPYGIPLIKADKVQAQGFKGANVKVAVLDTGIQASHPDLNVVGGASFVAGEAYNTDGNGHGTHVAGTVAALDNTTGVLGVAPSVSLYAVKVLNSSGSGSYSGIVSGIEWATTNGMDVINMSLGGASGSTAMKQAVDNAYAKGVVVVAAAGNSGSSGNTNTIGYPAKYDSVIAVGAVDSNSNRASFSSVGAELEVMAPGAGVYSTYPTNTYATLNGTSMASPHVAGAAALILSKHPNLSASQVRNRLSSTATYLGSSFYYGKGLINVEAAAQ
Put plainly: cell-based or functional assay.

Protease activity upon dilution (%) immediately after preparation and Remaining activity (%) immediately after preparation data for one molecule are collected here from US20140357543A1.

B1: proteinaceous protease inhibitor of SEQ ID NO:6 (protein)
chain: TDTGDHHNQKTEWPELVGKSVEEAKKVILQDKSEAQIIVLPVGTIVTMEYRIDRVRLFVDSLDKIAQVPRVG
B1 returned a Protease activity upon dilution (%) immediately after preparation of 10% and a Remaining activity (%) immediately after preparation of 0%.
